This note sets out measurements from patent US20250289897A1, “LEPTIN RECEPTOR AGONISTIC ANTIBODY AS MONO OR COMBO THERAPIES TO TREAT OBESITY” (ELI LILLY AND COMPANY, priority 2024, published 2025).

For assay [1], the target named is human LEPR, full length, on HEK293-STAT3Luc-hLepR1 cells (Homo sapiens) (UniProt P48357). The assay can be described thus: flow cytometry on live HEK293-STAT3Luc-hLepR1 cells, AF647 anti-human IgG; average of 4 runs, SD 331, R^2 0.50. Background: Flow cytometry measures light scatter and fluorescence of single cells or particles in a stream.
Sequence of human LEPR, full length, on HEK293-STAT3Luc-hLepR1 cells (Homo sapiens) (P48357 22-1165 limits assumed): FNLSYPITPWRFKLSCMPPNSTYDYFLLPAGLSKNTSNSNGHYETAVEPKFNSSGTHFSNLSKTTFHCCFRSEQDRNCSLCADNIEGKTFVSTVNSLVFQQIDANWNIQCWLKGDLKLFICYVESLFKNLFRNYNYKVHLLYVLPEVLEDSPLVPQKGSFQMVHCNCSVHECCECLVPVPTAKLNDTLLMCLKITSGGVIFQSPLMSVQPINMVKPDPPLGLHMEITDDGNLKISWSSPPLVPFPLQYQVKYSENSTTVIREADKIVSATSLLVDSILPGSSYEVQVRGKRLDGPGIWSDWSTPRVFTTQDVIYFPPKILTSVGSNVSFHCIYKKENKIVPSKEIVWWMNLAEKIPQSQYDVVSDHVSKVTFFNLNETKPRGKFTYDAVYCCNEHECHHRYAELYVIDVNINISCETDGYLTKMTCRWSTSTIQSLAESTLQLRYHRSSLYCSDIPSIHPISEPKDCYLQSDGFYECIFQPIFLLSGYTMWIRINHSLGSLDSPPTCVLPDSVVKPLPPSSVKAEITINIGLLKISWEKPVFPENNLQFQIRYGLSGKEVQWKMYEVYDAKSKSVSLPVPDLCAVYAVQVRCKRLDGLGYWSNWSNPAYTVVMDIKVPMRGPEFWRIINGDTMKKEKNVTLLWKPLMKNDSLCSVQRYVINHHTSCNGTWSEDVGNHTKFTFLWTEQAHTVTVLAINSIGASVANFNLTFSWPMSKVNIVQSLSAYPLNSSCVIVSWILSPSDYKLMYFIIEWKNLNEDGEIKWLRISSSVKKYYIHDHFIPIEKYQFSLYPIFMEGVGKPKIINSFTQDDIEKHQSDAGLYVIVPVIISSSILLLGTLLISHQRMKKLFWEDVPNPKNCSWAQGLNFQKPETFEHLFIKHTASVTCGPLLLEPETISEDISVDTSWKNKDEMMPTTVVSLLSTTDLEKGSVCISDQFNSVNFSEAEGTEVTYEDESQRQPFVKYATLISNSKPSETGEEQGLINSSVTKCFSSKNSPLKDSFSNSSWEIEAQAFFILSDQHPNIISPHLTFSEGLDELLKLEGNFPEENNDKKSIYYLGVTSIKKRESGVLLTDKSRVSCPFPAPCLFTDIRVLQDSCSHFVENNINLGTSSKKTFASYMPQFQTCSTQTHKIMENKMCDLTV
In assay [2] the target is cynomolgus monkey LEPR, full length, on HEK293-STAT3Luc-cmLepR2 cells (Macaca fascicularis). Nature of the assay: flow cytometry on live HEK293-STAT3Luc-cmLepR2 cells, AF647 anti-human IgG; average of 4 runs, SD 0, R^2 0.60.
Assay [3] addresses human LEPR, full length, on HEK293-STAT3Luc-hLepR1 cells (Homo sapiens) (UniProt P48357). The assay can be described thus: cell-based or functional assay.
For assay [4] the target is unchanged. The assay can be described thus: flow cytometry on live HEK293-STAT3Luc-hLepR1 cells, AF647 anti-human IgG; average of 4 runs.
Assay [5] addresses cynomolgus monkey LEPR, full length, on HEK293-STAT3Luc-cmLepR2 cells (Macaca fascicularis). The assay can be described thus: flow cytometry on live HEK293-STAT3Luc-cmLepR2 cells, AF647 anti-human IgG; average of 4 runs.
The target of assay [6] is neonatal Fc receptor (FcRn) on FcRn Affinity Column Gen2 (Roche, Cat #09430857001) (UniProt P55899). Nature of the assay: FcRn-HPLC (Roche FcRn Affinity Column Gen2), pH gradient 5.5 to 8.8 over 90 minutes.
Sequence of neonatal Fc receptor (FcRn) on FcRn Affinity Column Gen2 (Roche, Cat #09430857001) (P55899 24-297 limits assumed, chain 1 of 2): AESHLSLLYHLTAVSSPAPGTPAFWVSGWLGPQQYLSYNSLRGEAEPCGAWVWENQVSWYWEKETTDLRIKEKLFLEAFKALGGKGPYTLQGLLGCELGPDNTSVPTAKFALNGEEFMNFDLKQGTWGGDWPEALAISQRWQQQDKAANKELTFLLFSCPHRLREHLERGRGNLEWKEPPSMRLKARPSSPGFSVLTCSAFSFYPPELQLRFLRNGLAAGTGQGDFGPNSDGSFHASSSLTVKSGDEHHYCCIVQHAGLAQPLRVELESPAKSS
Sequence of neonatal Fc receptor (FcRn) on FcRn Affinity Column Gen2 (Roche, Cat #09430857001) (P61769 21-119 limits assumed, chain 2 of 2, further chain): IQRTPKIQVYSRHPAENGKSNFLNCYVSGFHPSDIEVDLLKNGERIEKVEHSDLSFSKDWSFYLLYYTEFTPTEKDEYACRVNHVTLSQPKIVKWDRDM
In assay [7] the target is human FcγRIIIA_158F (CD16a) extracellular domain (human) (UniProt P08637). The assay can be described thus: SPR at 25 C (Biacore T200), antibody captured on Protein A chip, FcγR ECD as analyte, steady state; average of 3, SD 0.02. For orientation: Surface plasmon resonance follows binding to a sensor surface in real time, without labels.
Sequence of human FcγRIIIA_158F (CD16a) extracellular domain (human) (P08637 17-208): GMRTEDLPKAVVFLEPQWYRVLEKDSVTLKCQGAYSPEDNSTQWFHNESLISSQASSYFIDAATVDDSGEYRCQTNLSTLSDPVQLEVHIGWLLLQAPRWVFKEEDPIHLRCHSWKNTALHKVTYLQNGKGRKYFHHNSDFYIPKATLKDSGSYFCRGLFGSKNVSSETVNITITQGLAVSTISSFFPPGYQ
The target of assay [8] is human FcγRI (CD64) extracellular domain (human) (UniProt P12314). The assay can be described thus: SPR at 25 C (Biacore T200), antibody captured on Protein A chip, FcγR ECD as analyte; average of 3, SD 1.3.
Sequence of human FcγRI (CD64) extracellular domain (human) (P12314 16-292): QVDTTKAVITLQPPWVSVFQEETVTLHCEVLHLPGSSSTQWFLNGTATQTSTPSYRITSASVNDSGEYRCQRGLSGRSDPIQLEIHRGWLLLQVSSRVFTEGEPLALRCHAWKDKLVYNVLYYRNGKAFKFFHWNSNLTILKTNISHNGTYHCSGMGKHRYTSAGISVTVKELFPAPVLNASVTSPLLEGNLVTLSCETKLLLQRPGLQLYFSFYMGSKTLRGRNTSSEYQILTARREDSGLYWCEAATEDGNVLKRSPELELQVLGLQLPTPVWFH
In assay [9] the target is human FcγRIIA_131H (CD32a) extracellular domain (human) (UniProt P12318). Nature of the assay: SPR at 25 C (Biacore T200), antibody captured on Protein A chip, FcγR ECD as analyte, steady state; average of 3, SD 0.01.
Sequence of human FcγRIIA_131H (CD32a) extracellular domain (human) (P12318 34-217): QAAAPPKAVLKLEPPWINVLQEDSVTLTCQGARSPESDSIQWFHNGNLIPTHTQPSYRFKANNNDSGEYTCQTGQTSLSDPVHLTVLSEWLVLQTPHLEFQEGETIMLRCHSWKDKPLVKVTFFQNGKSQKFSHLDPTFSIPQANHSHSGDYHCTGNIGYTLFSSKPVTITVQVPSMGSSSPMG
Assay [10] deals with human FcγRIIA_131R (CD32a) extracellular domain (human) (UniProt P12318). The description is as above.
Sequence of human FcγRIIA_131R (CD32a) extracellular domain (human) (P12318 34-217 H167R): as the sequence (P12318 34-217) above, with H134R counted along it
Assay [11] concerns the target Mutant human LEPR-A409E, on HEK293 STAT3-Luciferase reporter cells (human) (UniProt P48357). The assay can be described thus: cell-based or functional assay.
In assay [12] the target is neonatal Fc receptor (FcRn) on FcRn Affinity Column Gen2 (Roche, Cat #09430857001) (UniProt P55899). Nature of the assay: FcRn-HPLC (Roche FcRn Affinity Column Gen2), peak width at 50% peak height.

The term EC50 denotes the midpoint of the concentration-response curve. The Kd is the concentration at which binding is half-saturated.

Sequence of Mutant human LEPR-A409E, on HEK293 STAT3-Luciferase reporter cells (human) (P48357 22-1165 A409E limits assumed): as the sequence (P48357 22-1165 limits assumed) above, with A388E counted along it

For the substance IgG Isotype control (antibody), the EC50 in assay [1] was 409 nM; in [2], 727 nM. Moreover, the Maximum RLU, pERK1/2 AlphaLISA (baseline 29762.5) in [3] came out at 27300 RLU. In addition, the values for the Bottom (gMFI) in [4] and in [5] were 148 gMFI and 69 gMFI, respectively. Moreover, the values for the Top (gMFI) in [4] and in [5] were 293 gMFI and 131 gMFI, respectively.
In turn, Briakinumab (antibody) returned a Retention Time in [6] of 88.9 min.
As for IgG1 positive control (antibody), the Kd in [7] was found to be 860 nM; in assay [8] it was 0.0619 nM; in assay [9], 520 nM; in [10], 530 nM.
“recombinant human leptin protein (SEQ ID NO:27) (from UniProt P41159 22-167) (ligand)” gave a Top (RLU), STAT3-luciferase reporter (projected by the fitting software) in assay [11] of 259000 RLU. In assay [3], this substance yielded a Maximum RLU, pERK1/2 AlphaLISA (baseline 29762.5) of 138000 RLU.
For Ustekinumab (antibody), in assay [12], the Peak Width turned out to be 1.9 min. Moreover, the Retention Time in [6] came out at 69.4 min.
